This is an account of results in patent US20250026844A1 (SHANDONG SIMCERE BIOPHARMACEUTICAL, published 2025).

Several values for one entry are separate records, joined by “and”; a condition that tells them apart may be missing. Equal entries are not always repeated. Where two headings read alike, the source gives them in different places.

Experiment [1] has as its target T1, human BCMA on cells (human, UniProt Q02223 1-184).
T1 construct: whole, on cells; also called H929 cells; U266 cells
T1 sequence (looked up): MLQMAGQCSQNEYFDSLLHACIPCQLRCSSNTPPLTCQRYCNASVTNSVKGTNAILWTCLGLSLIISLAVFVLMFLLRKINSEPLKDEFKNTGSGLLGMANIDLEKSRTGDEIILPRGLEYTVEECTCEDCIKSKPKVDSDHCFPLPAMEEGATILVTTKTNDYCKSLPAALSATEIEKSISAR
Put plainly: FACS, H929 cells. As for the experimental part:
(§1) H929 cells and U266 cells were scale-up cultured in T-75 cell culture flasks to the logarithmic growth phase, and the cells were pipetted into a single cell suspension. After the cells were counted, the cells were centrifuged and the cell pellet was resuspended in FACS buffer (PBS+2% fetal calf serum) to 2×10⁶ cells per ml, and the suspension was added to the 96-well FACS reaction plate at 50 μl per well, REGN5459-hlgG1 and HPN217-hHcAb antibodies were used as primary antibodies, and APC-labeled goat anti-human IgG (H+L) secondary antibodies (purchased from Jackson, catalog number: 109-605-088) were detected and analyzed by FACS (FACS Canto™, purchased from BD Corporation). The results are shown in Table 4 and FIGS. 2A and 2B, and indicate that both H929 cells and U266 cells can bind to REGN5459-hlgG1 and HPN217-hHcAb antibodies.
On the technique in general: In flow cytometry, cells or beads pass a laser one at a time.

The target of experiment [2] is T1, human BCMA on cells. The experiment in a line: FACS, U266 cells. As to the method:
as §1

In experiment [3] the target is T1, human BCMA on cells. Put plainly: FACS, H929 cells. As to the method: (§2) The desired cells were scale-up cultured in T-75 cell culture flasks to the logarithmic growth phase, and the cells were pipetted into a single cell suspension. After the cells were counted, the cells were centrifuged and the cell pellet was resuspended in FACS buffer (PBS+2% fetal calf serum) to 2×10⁶ cells per ml, and the suspension was added to the 96-well FACS reaction plate at 50 μl per well, then the sample to be tested of the candidate antibody was added at 50 μl per well and the mixture was incubated at 4° C. for 1 h. The obtained mixture was centrifuged and washed 3 times with a PBS buffer. Secondary antibody anti-hlgG(Fc) Alexa 647 (purchased from Jackson, catalog number: 109-605-098) was added at 50 μl/well, and incubated on ice for 1 h. The obtained mixture was centrifuged and washed 3 times with a PBS buffer. 100 μl of the mixture was taken for detection and result analysis by FACS (FACS Canto™, purchased from BD Company). Data analysis was performed by software (FlowJo) to obtain the mean fluorescence intensity (MFI) of the cells. Then, a software (GraphPad Prism8) was used for analysis, data fitting and EC50 calculation. BCMA-Lab05, BCMA-Lab06, and BCMA-Lab08 had poor binding to H929 and U266 cells, while the other antibodies performed better.
This is another data set of the same source.

Experiment [4] addresses T1, human BCMA on cells. The experiment in a line: FACS, U266 cells. As for the experimental part:
as §2
The source holds these as a separate data set.

Experiment [5] concerns the target T1, human BCMA on cells. The experiment in a line: FACS, H929 cells. As for the experimental part: as §2
(§3) The specific method was the same as in Example 4(B).
This is another data set of the same source.

In experiment [6] the target is T1, human BCMA on cells. The experiment in a line: FACS, U266 cells. As for the experimental part: as §2, §3
This is another data set of the same source.

The target of experiment [7] is T2, human BCMA-His protein (human, UniProt Q02223 1-54).
T2 construct: Bought protein; also called human BCMA protein; huBCMA-His; not shown: His tag
T2 sequence (looked up): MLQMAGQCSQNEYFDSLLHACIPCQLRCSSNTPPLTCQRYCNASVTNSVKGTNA
Put plainly: SPR (Biacore), antibody captured on Protein A chip, BCMA-His in solution. As to the method: (§4) The flow cell was set to 25° C. The sample block was set to 16° C. Both were pretreated with the running buffer. In each cycle, an antibody to be detected was first captured with a Protein A chip, and then a single concentration of BCMA antigen protein was injected. The binding and dissociation processes of the antibody and the antigen protein were recorded, and finally Glycine pH 1.5 (GE Healthcare; BR-1003-54) was used to complete chip regeneration. Binding was measured by injecting different concentrations of BCMA-His in solution for 240 s with a flow rate of 30 μL/min. The concentration started from 200 nM (see the detailed results for the actual concentration in the test) and was diluted at 1:1, making a total of 5 concentrations. The dissociation phase was monitored for up to 600 s and was triggered by switching from sample solution to running buffer. The surface was regenerated by washing with a 10 mM glycine solution (pH 1.5) for 30 s at a flow rate of 30 μL/min. Bulk refractive index difference was corrected by subtracting the response obtained from the goat anti-human Fc surface. Blank injection was also subtracted (=double reference). For calculation of apparent KD and other kinetic parameters, Langmuir 1:1 model was used. The binding rate (Kₐ), dissociation rate (Kdis) and binding affinity (KD) of the recombinant candidate antibody to human BCMA protein are shown in the table, wherein REGN5459-hlgG1 antibody was used as a control.

In experiment [8] the target is T2, human BCMA-His protein. Described as above. As to the method:
as §4
The specific operating method referred to Example 5. The binding rate (Ka), dissociation rate (Kdis) and binding affinity (KD) of the humanized candidate nanobodies to human BCMA protein are shown Table 18, wherein REGN5459-hlgG1 antibody was used as a control.
This is another data set of the same source.

Experiment [9] has as its target T2, human BCMA-His protein. Described as above. As to the method:
as §4
According to the method in Example 5, Biacore was used to detect the affinity of the recombinant antibodies to human BCMA protein.
The source holds these as a separate data set.

Experiment [10] addresses T2, human BCMA-His protein. The experiment in a line: ELISA, plate coated with human BCMA-His 1 ug/mL, antibody titrated from 100 nM, HRP secondary antibody, OD450. As for the experimental part: (§5) The specific method was as follows: Human BCMA protein (purchased from Acro, catalog number: BCA-H522y) and monkey BCMA protein (purchased from Acro, catalog number: BCA-C52H7) were diluted with PBS to a final concentration of 1 μg/mL, respectively, and then added to a 96-well ELISA plate at 50 al/well. The plate was sealed with a plastic film and incubated overnight at 4° C., the plate was washed twice with PBS the next day, and then a blocking solution [PBS+2% (w/v) BSA] was added for blocking at room temperature for 2 h. The blocking solution was discarded, the plate was washed 3 times with PBS, and 100 nM BCMA recombinant chimeric nanobody diluted gradiently or negative control antibody was added at 50 μl/well. After incubation at 37° C. for 2 h, the plate was washed 3 times with PBS. HRP (horseradish peroxidase)-labeled secondary antibody (purchased from Merck, catalog number: AP113P) was added, and incubated at 37° C. for 1 h, and the plate was washed 5 times with PBS. TMB substrate was added at 50 μl/well, and incubated at room temperature for 10 min, then a stop solution (1.0 M HCl) was added at 50 μl/well. The OD450 nm values were read by an ELISA microplate reader (Multimode Plate Reader, EnSight, purchased from Perkin Elmer). All antibodies bound to human BCMA protein. BCMA-Lab06 and BCMA-Lab07 had no cross-binding activity with monkey BCMA protein. […]

In experiment [11] the target is T3, monkey BCMA-His protein (monkey, UniProt A0A2K5UD97 1-53).
T3 construct: Bought protein; also called monkey BCMA protein; CynoBCMA-his
T3 sequence (A0A2K5UD97 entry or part of it limits assumed): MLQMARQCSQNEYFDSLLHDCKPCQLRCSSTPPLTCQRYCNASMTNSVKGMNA
The experiment in a line: ELISA, plate coated with monkey BCMA-His 1 ug/mL, antibody titrated from 100 nM, HRP secondary antibody, OD450. As to the method: as §5
For orientation: In an ELISA, binding on a coated surface is turned into a signal by an enzyme label.

For experiment [12], the target named is T3, monkey BCMA-His protein. The description is as above. As for the experimental part: The binding activity of the control antibody to human BCMA-His protein (purchased from Acro, catalog number: BCA-H522y) and monkey BCMA-His protein (purchased from Acro, catalog number: BCA-C52H7) was detected by ELISA. The specific method was as follows: The antigen protein was diluted with PBS to a final concentration of 1 μg/mL, and then added to a 96-well ELISA plate at 50 μl per well. The plate was sealed with a plastic film and incubated overnight at 4° C., the plate was washed twice with PBS the next day, and then a blocking solution [PBS+2% (w/v) BSA] was added for blocking at room temperature for 2 h. The blocking solution was poured off and 50 μl of 100 nM serially diluted control antibody or negative control antibody was added to each well. After incubation at 37° C. for 2 h, the plate was washed 3 times with PBS. HRP (horseradish peroxidase)-labeled secondary antibody (purchased from Merck, catalog number: AP113P) was added, and incubated at 37° C. for 1 h, and the plate was washed 5 times with PBS. TMB substrate was added at 50 μl/well, and incubated at room temperature for 10 min, then a stop solution (1.0 M HCl) was added at 50 al/well. The OD450 nm values were read by an ELISA microplate reader (Multimode Plate Reader, EnSight, purchased from Perkin Elmer). The results are shown in Tables 2 and 3 and FIGS. 1A and 1B. […]
This is another data set of the same source.

In experiment [13] the target is T2, human BCMA-His protein. Put plainly: ligand competition ELISA: plate coated with human BCMA protein 1 ug/mL, antibody titrated, blocked ligand hAPRIL-biotin 0.5 ug/mL, OD450. As for the experimental part:
The antigen protein was diluted with PBS to a final concentration of 1 μg/mL, and then added to a 96-well ELISA plate at 50 μl per well. The plate was sealed with a plastic film and incubated overnight at 4° C., the plate was washed twice with PBS the next day, and then a blocking solution [PBS+2% (w/v) BSA] was added for blocking at room temperature for 2 h. The blocking solution was discarded, the plate was washed 3 times with PBS, and 200 nM BCMA recombinant chimeric nanobody diluted gradiently or negative control antibody was added at 50 μl/well. hAPRIL-biotin (purchased from Acro, catalog number: APL-H82F5) was diluted to 0.5 μg/mL, with 50 μl per well. After incubation at 37° C. for 1.5 h, the plate was washed 3 times with PBS. HRP (horseradish peroxidase)-labeled secondary antibody (purchased from Sigma, catalog number: S2438-250 μg) was added, and incubated at 37° C. for 1 h, and the plate was washed 5 times with PBS. TMB substrate was added at 50 μl/well, and incubated at room temperature for 10 min, then a stop solution (1.0 M HCl) was added at 50 al/well. The OD450 nm values were read by an ELISA microplate reader (Multimode Plate Reader, EnSight, purchased from Perkin Elmer). BCMA-Lab05, BCMA-Lab06 and BCMA-Lab08 had average blocking effects, while the other antibodies had good blocking effects.

Experiment [14] concerns the target T2, human BCMA-His protein. The experiment is described as above. The source holds these as a separate data set.

B1: REGN5459-hIgG1 (antibody, V domains shown)
VH: EVQLVESGGGLVQPGGSLRLSCAASGFTFSNFWMTWVRQAPGKGLEWVANMNQDGSEKYYVDSVKGRFTISRDNAKSSLYLQMNSLRAEDTAVYYCARDREYCISTSCYDDFDYWGQGTLVTVSS
VL: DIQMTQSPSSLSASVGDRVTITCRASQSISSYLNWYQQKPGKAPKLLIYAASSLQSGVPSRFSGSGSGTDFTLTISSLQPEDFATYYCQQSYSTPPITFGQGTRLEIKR
notes: Control antibody; also called REGN5459-hlgG1; BCMA antibody
Usually EC50 stands for the concentration that produces a half-maximal response. Broadly, the Kd is the constant that tells how readily two partners part at equilibrium. By koff is commonly meant a measure of how fast the partners let go of each other. The kon is the second-order rate constant of association. The term EC50 (read off the curve) denotes the concentration at which the effect is half-maximal. Regarding B1, the EC50 is 6.78 nM with human BCMA on cells [1]; 9.12 nM with human BCMA on cells [2]; 5.24 nM and 9.39 nM and 6.46 nM with human BCMA on cells [3]; 7.14 nM and 16.6 nM and 9.49 nM with human BCMA on cells [4]; 9.39 nM and 13.2 nM in the experiment with human BCMA on cells [5]; 16.6 nM and 32.2 nM with human BCMA on cells [6]. In addition, the Kd with human BCMA-His protein [7] came to 0.233 nM; in the experiment with human BCMA-His protein [8] it was 0.208 nM; with human BCMA-His protein [9], 0.267 nM. The koff with human BCMA-His protein [7] worked out at 0.000178 s⁻¹; in the experiment with human BCMA-His protein [8], 0.000162 s⁻¹; with human BCMA-His protein [9], 0.000197 s⁻¹. The kon with human BCMA-His protein [7] came out at 766000 M⁻¹ s⁻¹; in the experiment with human BCMA-His protein [8] it was 781000 M⁻¹ s⁻¹; with human BCMA-His protein [9] it was 739000 M⁻¹ s⁻¹. Besides, the half-maximal effective concentration (EC50 (read off the curve)) in the experiment with human BCMA-His protein [10], with monkey BCMA-His protein [11] and with monkey BCMA-His protein [12] was about 0.1 nM each time. Besides, the “IC50 (read off the curve)” value with human BCMA-His protein [13] was ~6 nM and ~5 nM; in the experiment with human BCMA-His protein [14], about 5 nM.
